The values that follow come from patent US20100048450A1, “Sumoylation Control Agent and Uses Thereof” (priority 2005, published 2010).

The subject of assay [1] is HLS-5. Description: Confocal microscopy of HLS-5 localisation in COS7 cells. In kind it is cell-based. The text has this:
(A) Confocal microscopy of COS7 cells co-expressing Myc-tagged HLS-5 and GFP-SUMO-1. HLS-5 was detected with anti-Myc antibodies in conjunction with red secondary antibodies and SUMO-1 detected by green fluorescent. (B) Confocal microscopy of COS7 cells co-expressing Myc-tagged HLS-5 and GATA-1. GATA-1 was detected with an anti-GATA-1 antibody and HLS-5 was detected with anti-Myc antibodies in conjunction with red and green fluorescent secondary antibodies respectively. (C) Confocal microscopy of COS7 cells co-expressing myc-tagged HLS-5 in the presence of MG132. HLS-5 was detected with anti-Myc antibodies in conjunction with red fluorescent secondary antibodies
(§1) Also, COS7 cells co-expressing Myc-tagged HLS-5 or a mutant form of HLS-5 lacking its Ring finger (ΔN61) and HA-tagged SUMO1 were analysed in the presence or absence of MG132.
As HLS-5 is located principally within cytoplasmic granules, the effects of Ubc9, PIAS1, MG-132 and SUMO-1 on HLS-5 compartmentalization were investigated. […] However, when the SUMO-1 and HLS-5 were co-expressed, there was a remarkable increase in the amount of HLS5 appearing in the nucleus (FIG. 3A). Therefore SUMO1 promoted translocation of HLS-5 from cytoplasmic granules into the nucleus.

Assay [2] relates to Hela cells. Description: HLS5-induced apoptosis in co-transfected Hela cells. It is filed as cell-based, human. To be noted: HLS5 alone or co-transfected with the named protein. The text has this:
To examine the biological effects of Ubc9, PIAS1 and SUMO-1 on HLS5-induced apoptosis, COS cells and HeLa cells were co-transfected with these molecules and cell death monitored. […] However, the effects of SUMO-1 on cell death induced by HLS5 were less pronounced.

Assay [3] has as its system GATA-1. Description: Co-immunoprecipitation of HLS-5 and GATA-1 in COS cells. It is filed as binding. To be noted: with isopeptidase inhibitors NEM and IAA. How it is done: (§2) (B and C) Lysates from COS7 cells transfected with Myc-tagged HLS-5 and/or GATA-1, and/or HA-tagged Sumo-1, and/or HA-tagged PIAS1 were immunoblotted (IB) with antibodies to GATA-1, HA or Myc D) COS7 cells were transfected as shown in the presence of pGL3-M1α firefly luciferase reporter construct and pRN-CMV renilla luciferase construct. Relative GATA-1 activity was determined by dividing firefly activity with renilla activity. Amount of DNA used was 200 ng per transfection (+) unless otherwise shown. Samples were performed in duplicate and shown is the mean±range. Data shown are representative of three independent experiments.
The interaction between GATA-1 and HLS5 was then examined biochemically by transfecting COS cells with myc-tagged HLS-5 and GATA-1, followed by immunoprecipitation and immunoblotting.

The subject of assay [4] is PIAS1. Briefly: Immunoblot of PIAS1 levels in COS cells co-expressing HLS-5 or deletion mutants. In kind it is cell-based. To be noted: co-expression with HA-tagged PIAS1, FIG. 5B/5C. The text has this: (§3) (A) Hela cells co-expressing Myc-tagged HLS-5 and HA-tagged PIAS1. PIAS1 was detected with an anti-HA antibody and HLS-5 was detected as a GFP fusion protein in conjunction with red and green fluorescent secondary antibodies respectively. (B) COS7 cells transfected with GFP-tagged HLS-5 and/or HA-tagged PIAS1, UBC9 or SUMO-1 and immunoblotted (IB) with antibodies to HA. (C) Lysates from COS7 cells transfected with Different Myc-tagged HLS-5 deletion constructs and HA-tagged-PIAS1, and GFP-tagged Histone 2B as a transfection/Loading control. Samples were immunoblotted (IB) with antibodies to GFP, HA and Myc.
(§4) To investigate whether HLS-5 was a functional E3 ligase, SUMO-1 and HLS-5 were co-expressed in COS cells and total protein sumoylation ascertained by immunoblotting. […] We then investigated which domain of HLS-5 was involved in the elimination of PIAS1 protein expression. […] Thus, HLS-5 altered global protein SUMOylation and reduced intracellular content of SUMO-1, PIAS1 and Ubc9, key components of the SUMOylation machinery and this action is accomplished partly through its B Box & Coiled Coil domain.
For orientation: Immunoblotting shows a protein as a band on a membrane.

In assay [5] the test system is GATA-1. Briefly: GATA-1 transactivation luciferase reporter assay in COS cells. It is filed as cell-based. How it is done: as §2
The effect of HLS-5 on sumoylated GATA-1 transactivation was then examined using the MIα promoter and luciferase reporter assays. […] These observations contrast with the inhibitory effects of GATA-1 sumoylation on transactivation reported by Collavin et al. (2004, supra). […] These observations are consistent with a modulatory role for HLS5 in sumoylation.
A general note: A reporter such as luciferase makes a cellular process visible.

Assay [6] concerns SUMO-3. Description: Yeast two-hybrid binding of HLS-5 to SUMO-3. To be noted: liquid β-galactosidase assay. On the procedure:
(§5) (A) Potential sumoylation sites of HLS-5 are shown. (B) Binding of Hls-5 deletion mutants to full length Sumo-1 was examined in the yeast system by filter assay for β-galactosidase activity. (C) Interaction between Hls-5 and Sumo-1, 2 or 3 was examined using yeast two-hybrid. Binding was assessed using a liquid assay to measure β-galactosidase activity. Samples were measured in triplicate and shown is the mean±standard deviation. (D) Lysates from COS7 cells transfected with Myc-tagged Hls-5, and/or HA-tagged Sumo-1, HA-tagged UBC9, HA-tagged PIAS1 were immunoblotted (IB) with antibodies to Sumo-1 or Myc.
(§6) Since HLS-5 was able to interact with Ubc9 and PIAS1, the possibility that HLS-5 is sumoylated was then examined. Like other RBCC/TRIM family members such as PML (Duprez et al., 1999, J Cell Sci., 112, 381-393; Kamitani et al., 1998, J. Biol. Chem., 273, 26675-26682), HLS-5 has several ΨKxE/D consensus sumoylation sites (FIG. 2a). To determine if HLS-5 was able to bind SUMO-1, the yeast two-hybrid system was employed using several HLS-5 deletion mutants.

Assay [7] relates to global SUMOylation. Description: Total protein sumoylation by immunoblotting in COS cells co-expressing SUMO-1 and HLS-5. In kind it is cell-based. To be noted: SUMO-1 and HLS-5 co-expressed.
Source text: as §3, §4

Assay [8] relates to SUMO-1. Briefly: Immunoblot of SUMO-1 levels in COS cells co-expressing HLS-5. It is filed as cell-based. To be noted: SUMO-1 and HLS-5 co-expressed, FIG. 5B.
Source text: as §3, §4

Assay [9] has as its system Ubc9. Description: Immunoblot of Ubc9 levels in COS cells co-expressing HLS-5. In kind it is cell-based. To be noted: co-expression, FIG. 5B.
Source text: as §3, §4

For assay [10], the target named is T1, Ubc9 (Homo sapiens, UniProt P63279).
T1 construct: expressed in transfected cells; host or cells: yeast (two-hybrid)
Briefly: Yeast two-hybrid binding of HLS-5 to Ubc9. To be noted: yeast 2 hybrid, β-galactosidase filter assay. On the procedure:
(§7) (A) Full length Ubc9 was examined for binding to various HLS-5 constructs as shown using yeast two-hybrid. Binding was measured by filter assay for β-galactosidase activity. (B) BRET assay of COS7 cells expressing HLS-5. Rluc fusion protein with increasing amounts of GFP-Ubc9 fusion protein. Results presented as BRET ratio. (C) PIAS1 (aa 303-651) fragment isolated from the Y2H screen was assessed for binding to various HLS-5 constructs as shown using yeast two-hybrid. Binding was measured by filter assay for β-galactosidase activity. (D) Lysates from COS7 cells transfected with Myc-tagged HLS-5, HA-tagged PIAS1 and/or GATA-1 were immunoprecipitated (IP) with anti-Myc antibodies and immunoblotted (IB) with antibodies to HA or Myc in the presence and/or absence of NEM/IAA.
A yeast two-hybrid screen for HLS-5 interacting partners identified two proteins involved in the sumoylation pathway viz Ubc9 and PIAS1.
The interaction between HLS-5 and Ubc9 was characterized further by yeast 2 hybrid assays to define important binding domains. […] To confirm that HLS-5 and Ubc9 were genuine binding partners, the interaction was investigated in mammalian cells using bioluminescence resonance energy transfer (BRET), which is able to detect protein:protein interactions in living cells (Xu et al., 1999, Proc Natl Acad Sci USA, 96, 151-156). […]

For assay [11], the target named is T2, PIAS1 (Homo sapiens, UniProt O75925).
T2 construct: HA; expressed in transfected cells; host or cells: COS7
Briefly: Co-immunoprecipitation of HLS-5 and PIAS1 in COS cells. It is filed as binding. To be noted: when GATA-1 was present. On the procedure:
as §7
As PIAS1 mainly is a nuclear protein (Tan et al., 2000, Mol Endocrinol, 14, 14-26), and HLS-5 is primarily cytoplasmic, the failure of these molecules to interact may be caused by subcellular separation. Since GATA-1 promotes nuclear re-localization of HLS-5 (see below and FIG. 3b) it was included in co-transfections with HLS5 and PIAS1. […] It is postulated that the redistribution of HLS-5 induced by GATA-1 enabled nuclear access and binding to PIAS1 or that GATA-1, HLS-5 and PIAS1 form a protein complex required for this interaction.

Assay [12] deals with T1, Ubc9. Description: BRET assay of HLS-5 and Ubc9 in COS cells. In kind it is binding. To be noted: HLS-5 and Ubc9 constructs co-expressed in COS cells. On the procedure: as §7
The interaction between HLS-5 and Ubc9 was characterized further by yeast 2 hybrid assays to define important binding domains. […] To confirm that HLS-5 and Ubc9 were genuine binding partners, the interaction was investigated in mammalian cells using bioluminescence resonance energy transfer (BRET), which is able to detect protein:protein interactions in living cells (Xu et al., 1999, Proc Natl Acad Sci USA, 96, 151-156). […] However, this interaction may well be transient as the two molecules could not be co-immunoprecipitate (data not shown). […]
(In general: Bioluminescence resonance energy transfer reports proximity on the nanometre scale.)

The test system of assay [13] is SUMO-2. Description: Yeast two-hybrid binding of HLS-5 to SUMO-2. To be noted: liquid β-galactosidase assay. On the procedure: as §5, §6
For assay [14], the system named is SUMOylated substrate. Briefly: SUMOylated substrate co-immunoprecipitating with Myc-tagged HLS-5 in COS7 cells. To be noted: HA-tagged SUMO1, in the presence of MG132, FIG. 6A. It is filed as cell-based. How it is done:
(A) COS7 cells co-expressing Myc-tagged HLS-5 or a mutant form of HLS5 lacking its Ring finger (ΔN61) and HA-tagged SUMO1 in the presence or absence of MG132. SUMOylated substrate was detected with an anti-HA antibody and HLS-5 was immunoprecipitated by using a Myc antibodies respectively.
as §1

Assay [15] deals with T3, SUMO-1 (Homo sapiens, UniProt P63165).
T3 construct: expressed in transfected cells; host or cells: yeast (two-hybrid)
Briefly: Yeast two-hybrid binding of HLS-5 to SUMO-1. How it is done: as §5, §6

Residues, ends and D or L forms follow the SMILES beside them. *: point of attachment. Cbz = O=C(OCc1ccccc1)*

T1 sequence (P63279 whole entry, species assumed): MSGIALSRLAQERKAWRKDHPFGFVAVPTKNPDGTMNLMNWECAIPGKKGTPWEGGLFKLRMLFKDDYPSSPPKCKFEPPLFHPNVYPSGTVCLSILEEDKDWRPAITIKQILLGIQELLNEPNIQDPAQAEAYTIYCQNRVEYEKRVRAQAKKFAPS
T2 sequence (O75925 whole entry, species assumed): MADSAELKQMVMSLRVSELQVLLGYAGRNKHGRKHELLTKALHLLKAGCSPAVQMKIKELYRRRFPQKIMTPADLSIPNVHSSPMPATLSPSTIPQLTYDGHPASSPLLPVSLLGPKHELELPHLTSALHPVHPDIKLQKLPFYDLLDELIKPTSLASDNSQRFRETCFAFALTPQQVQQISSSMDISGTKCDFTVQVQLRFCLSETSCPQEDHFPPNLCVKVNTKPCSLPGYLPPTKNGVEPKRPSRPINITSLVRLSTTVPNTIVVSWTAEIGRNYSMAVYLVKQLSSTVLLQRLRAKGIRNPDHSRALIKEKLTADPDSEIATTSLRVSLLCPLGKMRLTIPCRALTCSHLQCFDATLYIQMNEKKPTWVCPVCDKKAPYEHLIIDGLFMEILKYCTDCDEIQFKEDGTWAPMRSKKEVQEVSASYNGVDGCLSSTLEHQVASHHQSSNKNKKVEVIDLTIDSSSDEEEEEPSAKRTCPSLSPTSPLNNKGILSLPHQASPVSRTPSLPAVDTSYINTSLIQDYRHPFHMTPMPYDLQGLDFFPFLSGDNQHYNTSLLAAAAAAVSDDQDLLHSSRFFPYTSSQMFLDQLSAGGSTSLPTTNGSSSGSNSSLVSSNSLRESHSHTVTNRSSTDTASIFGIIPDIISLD
T3 sequence (P63165 whole entry, species assumed): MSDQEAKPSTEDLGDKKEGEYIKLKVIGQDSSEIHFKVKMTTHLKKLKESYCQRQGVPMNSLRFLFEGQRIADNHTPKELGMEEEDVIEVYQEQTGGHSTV

On to `CC(C)C[C@@H](C=O)NC(=O)[C@H](CC(C)C)NC(=O)[C@H](CC(C)C)NC(=O)OCc1ccccc1` [MG132] (Cbz-Leu-Leu-Leu-aldehyde), for which the “translocation of HLS-5 from cytoplasmic granules into the nucleus” value in assay [1] (COS7 cells) is on record as “translocation was also observed”. Moreover, in assay [1] (COS7 cells expressing myc-tagged HLS-5, FIG. 3C), the “effect on HLS-5 accumulation” value was “accumulation of HLS-5”.
Take “Ubc9: E2 enzyme in the SUMO-1 conjugation pathway”: the “apoptosis / cell death caused by HLS5” value in assay [2] was 12 % of cells.

B1: HLS-5: member of the RING finger B-box Coiled-coil (RBCC) protein family; tested by expression from transfected constructs (protein, listed as Homo sapiens)
chain: MERSPDVSPGPSRSFKEELLCAVCYDPFRDAVTLRCGHNFCRGCVSRCWEVQVSPTCPVCKDRASPADLRTNHTLNNLVEKLLREEAEGARWTSYRFSRVCRLHRGQLSLFCLEDKELLCCSCQADPRHQGHRVQPVKDTAHDFRAKCRNMEHALREKAKAFWAMRRSYEAIAKHNQVEAAWLEGRIRQEFDKLREFLRVEEQAILDAMAEETRQKQLLADEKMKQLTEETEVLAHEIERLQMEMKEDDVSFLMKHKSRKRRLFCTMEPEPVQPGMLIDVCKYLGSLQYRVWKKMLASVESVPFSFDPNTAAGWLSVSDDLTSVTNHGYRVQVENPERFSSAPCLLGSRVFSQGSHAWEVALGGLQSWRVGVVRVRQDSGAEGHSHSCYHDTRSGFWYVCRTQGVEGDHCVTSDPATSPLVLAIPRRLRVELECEEGELSFYDAERHCHLYTFHARFGEVRPYFYLGGARGAGPPEPLRICPLHISVKEELDG
On to B1, for which, in assay [3], the “co-immunoprecipitation with GATA-1” value was “GATA-1 was detected in HLS-5 immunoprecipitates”. Moreover, in assay [4], the PIAS1 protein level result was “almost complete elimination of PIAS1”. The GATA-1 activity result in assay [5] (co-expression with SUMO-1) is on record as “decreased GATA-1 activity”. The GATA-1 transactivation result in assay [5] (in the presence of both SUMO-1 and PIAS1) was “suppressed GATA-1 transactivation”. The “binding to SUMO-3” value in [6] is reported as “neither SUMO-2, nor SUMO-3 bound”. Besides, the overall sumoylation result in [7] is reported as “reduced”. For the same molecule, in assay [8], the “reduction of the levels of SUMO-1” value is given as greater than 95%. Moreover, the Ubc9 protein level entry in [9] is on record as “reduced the levels of Ubc9”. Besides, the “association with Ubc9” value in [10] is on record as “able to associate with Ubc9”. Further, in assay [11], the “co-immunoprecipitation with PIAS1” value is on record as “could co-immunoprecipitate”. Further, the BRET ratio entry in assay [12] was “positive BRET ratio”. The “binding to SUMO-2” value in assay [13] is given as “neither SUMO-2, nor SUMO-3 bound”. Also, in assay [14], the “SUMOylated substrate detected with anti-HA antibody” value is “SUMOylated substrate detected”. In addition, the “apoptosis / cell death caused by HLS5” value in assay [2] is given as 60 % of cells. Moreover, the “interaction with SUMO-1” value in [15] was “could interact with SUMO-1”.
